Among the data in patent US20070059799A1 are binding affinity ratio (IC50 of standard peptide / IC50 of test peptide) and IC50 values, retold here.

Sequences and labels used below:
B1: HBV POL 627 peptide … (peptide)
peptide: GLLGFAAPF
modifications: not checked
B2: HBV POL 528 peptide … (peptide)
peptide: RAFPHCLAF
modifications: not checked
B3: HBV NUC 169 … (peptide)
peptide: LSTLPETTVVR
modifications: not checked
B4: HBV NUC 177 peptide […] (as printed) (peptide)
peptide: VVRRRGRSPR
modifications: not checked
B5: HBV POL 412 … (peptide)
peptide: LSWLSLDVSA
modifications: not checked
B6: HBV NUC 163 peptide … (peptide)
peptide: RSPRRRTPSPR
modifications: not checked
B7: … (HBV POL 122) (peptide)
peptide: YLPLDKGIKPY
modifications: not checked
B8: […] (HBV POL 414) (peptide)
peptide: WLSLDVSAAFY
modifications: not fully specified
B9: HBV POL 519 … (peptide)
peptide: TSAICSVVRR
modifications: not checked
B10: HBV POL 739 SVVLSRKY (peptide)
peptide: SVVLSRKY
modifications: not checked
B11: HBV ENV 253 … (peptide)
peptide: CLIFLLVLLDY
modifications: not checked
B12: HBV POL 752 … (peptide)
peptide: LLGCAANWI
modifications: not checked
B13: HBV ENV 243 8-mer FIIFLFIL (peptide)
peptide: FIIFLFIL
modifications: not checked
B14: HBV NUC 119 peptide LVSFGVWI (peptide)
peptide: LVSFGVWI
modifications: not checked
B15: HBV ENV 246 9-mer … (peptide)
peptide: FLFILLLCL
modifications: not checked
B16: HBV ENV 260 LLDYQGML (peptide)
peptide: LLDYQGML
modifications: not checked
B17: HBV ENV 254 LIFLLVLL (peptide)
peptide: LIFLLVLL
modifications: not checked
B18: HBV POL 40 9-mer … (peptide)
peptide: DLNLGNLNV
modifications: not checked
B19: HBV ENV 184 LLTRILTI (peptide)
peptide: LLTRILTI
modifications: not checked
B20: HBV POL 406 peptide … (peptide)
peptide: NLLSSNLSWL
modifications: not checked
B21: HBV POL 42 peptide … (peptide)
peptide: NLGNLNVSI
modifications: not checked
B22: HBV ENV 312 peptide … (peptide)
peptide: CIPIPSSWA
modifications: not checked
B23: HBV ENV 253 peptide CLIFLLVL (peptide)
peptide: CLIFLLVL
modifications: not checked
B24: HBV POL 533 peptide … (peptide)
peptide: CLAFSYMDDV
modifications: not checked
B25: HBV ENV 249 peptide … (9-mer, as printed) (peptide)
peptide: ILLLCLIFL
modifications: not checked
B26: HBV POL 625 peptide … (peptide)
peptide: IVGLLGFAA
modifications: not checked
B27: HBV NUC 23 peptide … (peptide)
peptide: CLGWLWGMDI
modifications: not checked
B28: HBV ENV 249 peptide … (peptide)
peptide: ILLLCLIFLLV
modifications: not checked
B29: HBV POL 521 peptide … (peptide)
peptide: AICSVVRRA
modifications: not checked
B30: HBV X 102 peptide … (peptide)
peptide: AMSTTDLEA
modifications: not checked
B31: HBV POL 738 NSVVLSRK (peptide)
peptide: NSVVLSRK
modifications: not checked
B32: HBV X 64 … (peptide)
peptide: SSAGPCALRF
modifications: not checked
B33: HBV POL 99 LTVNEKRR (peptide)
peptide: LTVNEKRR
modifications: not checked
B34: HBV ENV 339 LVPFVQWF (peptide)
peptide: LVPFVQWF
modifications: not checked
B35: HBV POL 45 … (peptide)
peptide: NLNVSIPWTHK
modifications: not checked
B36: HBV NUC 188 RTPSPRRR (peptide)
peptide: RTPSPRRR
modifications: not checked
B37: HBV NUC 75 NLEDPASR (peptide)
peptide: NLEDPASR
modifications: not checked
B38: HBV POL 771 … (peptide)
peptide: SALNPADDPSR
modifications: not checked
B39: HBV X 65 … (peptide)
peptide: SAGPCALRF
modifications: not checked
B40: HBV POL 377 LWDFSQF (peptide)
peptide: LVVDFSQF
modifications: not checked
B41: HBV X 65 SAGPCALR (peptide)
peptide: SAGPCALR
modifications: not checked
B42: HBV POL 520 SAICSVVR (peptide)
peptide: SAICSVVR
modifications: not checked
B43: HBV X 11 peptide … (peptide)
peptide: PARDVLCLR
modifications: not checked
B44: HBV POL 2 peptide PLSYQHFR (peptide)
peptide: PLSYQHFR
modifications: not checked
B45: HBV POL 567 peptide … (peptide)
peptide: GIHLNPNKTK
modifications: not checked
B46: peptide 26.0535 (HBV X NUC FUS 299, …) (peptide)
peptide: GVWIRTPPAYR
modifications: not checked
B47: peptide 26.0539 (HBV POL 376, …) (peptide)
peptide: RLVVDFSQFSR
modifications: not checked
B48: peptide 1.0219 (HBV X 1550, …) (peptide)
peptide: FVLGGCRHK
modifications: not checked
B49: peptide 20.0130 (HBV pol 655, …) (peptide)
peptide: AFTFSPTYK
modifications: not checked
B50: peptide 1.0993 (HBV X 130, …) (peptide)
peptide: KVFVLGGCR
modifications: not checked
B51: peptide 26.0153 (HBV X 64, …) (peptide)
peptide: SSAGPCALR
modifications: not checked
B52: peptide 1147.16 (HBV pol 149, …) (peptide)
peptide: HTLWKAGILYK
modifications: not checked
B53: peptide 26.0023 (HBV X NUC FUS 296, VSFGVWIR) (peptide)
peptide: VSFGVWIR
modifications: not checked
B54: peptide 20.0131 (HBV pol 524, …) (peptide)
peptide: SVVRRAFPH
modifications: not checked
B55: HBV POL 519 10-mer peptide … (SEQ ID NO: 668) (peptide)
peptide: TSAICSVVRR
modifications: not checked

No end group written: not given here.

The target of the first test is HLA-A*0301 (human).
Experiment: not given
Conditions: not given
B1: the binding affinity ratio (IC50 of standard peptide / IC50 of test peptide) was found to be 0.0006. Same read-out and setting: for B2 the value was 0.0015; for B3, -0.0009; for B4, 0.0027. In the case of B5, the binding affinity ratio (IC50 of standard peptide / IC50 of test peptide) stood at 0.0048. For B6, the binding affinity ratio (IC50 of standard peptide / IC50 of test peptide) is -0.0007. B7: the binding affinity ratio (IC50 of standard peptide / IC50 of test peptide) is -0.0004. With B8, the binding affinity ratio (IC50 of standard peptide / IC50 of test peptide) came out at 0.0034.

Take B9: the binding affinity ratio (IC50 of standard peptide / IC50 of test peptide) came to 0.0018. B10: the binding affinity ratio (IC50 of standard peptide / IC50 of test peptide) was -0.0002.

For B11, the binding affinity ratio (IC50 of standard peptide / IC50 of test peptide) was found to be 0.0083.

A further test addresses HLA-A*0201 (human).
Experiment: not given
Conditions: not given
Consider B12, for which the binding affinity ratio (IC50 of standard peptide / IC50 of test peptide) was 0.0011.

Take B13: the binding affinity ratio (IC50 of standard peptide / IC50 of test peptide) is 0.0006. On to B14, for which the binding affinity ratio (IC50 of standard peptide / IC50 of test peptide) was found to be 0.0004. Still for that read-out and setting: next, B15: 0.0002; B16: 0.0004. For B17, the binding affinity ratio (IC50 of standard peptide / IC50 of test peptide) stood at 0.0025.

For B18, the binding affinity ratio (IC50 of standard peptide / IC50 of test peptide) turned out to be 0.0004.

With B19, the binding affinity ratio (IC50 of standard peptide / IC50 of test peptide) was found to be 0.0026. Take B20: the binding affinity ratio (IC50 of standard peptide / IC50 of test peptide) was determined as 0.0016. With B21, the binding affinity ratio (IC50 of standard peptide / IC50 of test peptide) was 0.0047.

The target of the next test is HLA-A*0201 (human). In words: competition with 125I-labelled standard peptide for purified HLA, gel filtration.
Conditions: not given
A general note: In gel filtration, larger molecules generally elute earlier.
B22: the binding affinity ratio (IC50 of standard peptide / IC50 of test peptide) came to 0.001. As to B23, the binding affinity ratio (IC50 of standard peptide / IC50 of test peptide) came out at 0.0002. For B24, the binding affinity ratio (IC50 of standard peptide / IC50 of test peptide) is 0.0008. For the molecule B25, the binding affinity ratio (IC50 of standard peptide / IC50 of test peptide) was 0.0015.

Turning to B26, the binding affinity ratio (IC50 of standard peptide / IC50 of test peptide) was found to be 0.0009. On the same count and under the same terms, next, B27: 0.0093. For the molecule B28, the binding affinity ratio (IC50 of standard peptide / IC50 of test peptide) is 0.0056.

For B29, the binding affinity ratio (IC50 of standard peptide / IC50 of test peptide) amounted to 0.0001.

The same test, now with this note: remark: other sources report otherwise.
As to B30, the binding affinity ratio (IC50 of standard peptide / IC50 of test peptide) is 0.0013.

The target in a further test is HLA-A*0301 (human).
Experiment: not given
Conditions: not given
This is another data set of the same source.
Regarding B31, the binding affinity ratio (IC50 of standard peptide / IC50 of test peptide) stood at 0.0006. B32: the binding affinity ratio (IC50 of standard peptide / IC50 of test peptide) is -0.0003. On the same count and under the same terms, next, B33: -0.0002. With B34, the binding affinity ratio (IC50 of standard peptide / IC50 of test peptide) was determined as 0.0028. For B35, the binding affinity ratio (IC50 of standard peptide / IC50 of test peptide) is -0.0009. As for B36, the binding affinity ratio (IC50 of standard peptide / IC50 of test peptide) was -0.0002.

Consider B37, for which the binding affinity ratio (IC50 of standard peptide / IC50 of test peptide) was -0.0002.

Take B38: the binding affinity ratio (IC50 of standard peptide / IC50 of test peptide) was -0.0004. As to B39, the binding affinity ratio (IC50 of standard peptide / IC50 of test peptide) was -0.0003. With B40, the binding affinity ratio (IC50 of standard peptide / IC50 of test peptide) amounted to 0.0016.

Still in this test, the particulars now being: remark: other sources report otherwise.
As for B41, the binding affinity ratio (IC50 of standard peptide / IC50 of test peptide) was -0.0002. With B42, the binding affinity ratio (IC50 of standard peptide / IC50 of test peptide) is -0.0002.

In a further test the target is HLA-A*3101 (human). The test can be described thus: inhibition of 125I-labelled standard peptide binding to purified HLA.
Conditions: not given
As for B43, the binding affinity ratio (IC50 of standard peptide / IC50 of test peptide) worked out at 0.01. In the case of B44, the binding affinity ratio (IC50 of standard peptide / IC50 of test peptide) is -0.0009.

A further test concerns the target HLA-A*3301 (human). The test is described as above.
Conditions: not given
Regarding B43, the binding affinity ratio (IC50 of standard peptide / IC50 of test peptide) was 0.018. Take B44: the binding affinity ratio (IC50 of standard peptide / IC50 of test peptide) was -0.0009.

A further test deals with HLA-A*3101 (human). In words: competition with 125I-labelled probe peptide for purified HLA, gel filtration.
Conditions: not given
Regarding B45, the binding affinity ratio (IC50 of standard peptide / IC50 of test peptide) was determined as 0.0009.

Consider B46, for which the IC50 was determined as 3 nM.

B47 had an IC50 of 7 nM.

The test is the same for the next values; noted with them: remark: other sources report otherwise.
B48 gave an IC50 of 1500 nM. B49 came in with an IC50 of 3100 nM. The molecule B50 gave a concentration for half-maximal inhibition (IC50) of 30 nM.

For the molecule B51, the IC50 was determined as 55 nM.

A further test addresses HLA-A*03 (human). The test is described as above.
Conditions: not given
B52: the IC50 was 20 nM. In turn, B46 showed an IC50 of 58 nM. The same measure, in the same setting: for B47 the value was 39 nM.

The same test, now with this note: remark: other sources report otherwise.
B49 had an IC50 of 42 nM. Regarding B53, the IC50 turned out to be 2750 nM. As to B54, the half-maximal inhibitory concentration (IC50) stood at 100 nM.

For a further test, the target named is HLA-A*3301 (human). The test is described as above.
Conditions: not given
On to B45, for which the binding affinity ratio (IC50 of standard peptide / IC50 of test peptide) was found to be 0.0009.

Another test has as its target HLA-A*0301 (human). The test can be described thus: competition with 125I-labelled standard peptide on purified HLA, gel filtration.
Conditions: not given
With B55, the binding affinity ratio (IC50 of standard peptide / IC50 of test peptide) was found to be 0.0018.

By IC50 is commonly meant the point on the concentration scale where inhibition reaches its midpoint. A low value points to inhibition by little substance.
